For series [1], the system named is Nc1ncnc2c1ncn2[C@@H]1O[C@H](COP(=O)(O)OP(=O)(O)O)[C@@H](O)[C@H]1O. The settings on record: Saccharomyces cerevisiae.
Description: Binding affinity to yeast Hsp90
The test system of series [2] is Nc1ncnc2c1ncn2[C@@H]1O[C@H](COP(=O)(O)OP(=O)(O)OP(=O)(O)O)[C@@H](O)[C@H]1O. Kind of series: Binding affinity to CDK2/cyclin E. Type of series: protein-complex assay.
Series [3] in a line: Binding affinity to FGFR.

The record followed here is ChEMBL document CHEMBL1268867, “ATPases as drug targets: insights from heat shock proteins 70 and 90” (J Med Chem, 2010).

As usually defined, the Km is the concentration of substrate that gives half-maximal velocity. With “ATP-dependent molecular chaperone HSP82 (Saccharomyces cerevisiae S288c), P02829”, in series [1], the Km came out at 150 µM. Turning to “Cyclin-dependent kinase 2/cyclin E (Homo sapiens) (from UniProt P24864+P24941+O96020)”, in series [2], the Michaelis constant (Km) is 3.6 µM. Take `Nc1ncnc2c1ncn2[C@@H]1O[C@H](COP(=O)(O)OP(=O)(O)OP(=O)(O)O)[C@@H](O)[C@H]1O`: the Km in series [3] was found to be 70 µM.
